The record followed here is patent US20240092867A1 (UNIVERSITY OF CHICAGO, published 2024).

As a reminder, the koff is the rate constant with which the complex falls apart. As a reminder, the kon is a measure of how fast the partners come together. By Kd is commonly meant the free concentration of one partner at which half of the binding sites on the other are occupied at equilibrium, for simple one-to-one binding.

Assay [1] has as its target T1, recombinant laminin α3 2928-3150 protein (linker domain and LG4 domain) (human, UniProt Q16787 2928-3150).
T1 construct: range 2928-3150; Made in HEK-293F cells; also called laminin alpha 3 LG domain recombinant protein
T1 sequence: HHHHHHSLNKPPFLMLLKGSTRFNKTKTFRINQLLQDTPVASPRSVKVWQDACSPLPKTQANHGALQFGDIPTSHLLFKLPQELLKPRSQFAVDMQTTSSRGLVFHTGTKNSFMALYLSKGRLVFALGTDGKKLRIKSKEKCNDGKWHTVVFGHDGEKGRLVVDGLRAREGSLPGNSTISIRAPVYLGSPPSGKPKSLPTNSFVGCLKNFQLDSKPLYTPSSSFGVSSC
The assay can be described thus: ELISA, LG domain protein coated, GF 1 µg/mL. The protocol:
(§1) Affinity of GFs against recombinant laminin LG domains. ELISA plates were coated with 1 μg/mL (A) α3₂₉₂₈₋₃₁₅₀, (B) α4₈₂₆₋₁₈₁₆, or (C) α5₃₀₂₆₋₃₄₈₂ and further incubated with 1 μg/mL of VEGF-A165, VEGF-A121, PlGF-2, PlGF-1, PDGF-BB, or FGF-2 solution. Bound GFs were detected using a specific antibody for each GF (n=4, mean±SEM). Statistical analyses were done using the Mann-Whitney U test by comparing the signals obtained from the laminin domain- and the BSA-coated wells. *p<0.05, **p<0.01. […] A SPR chip was functionalized with the laminin α3₂₉₂₈₋₃₁₅₀ recombinant protein (˜1000 RU), and each GF was flowed over the chip at indicated concentrations. Curves represent the specific responses (in RU) to laminin. Experimental curves were fitted with Langmuir binding kinetics.
ELISA tests were performed as described above. […] 1 μg/mL of BSA served as non-binding protein control. After blocking with 2% BSA PBS-0.05% Tween 20 (PBS-T) solution, 1 μg/mL of the recombinant human proteins (VEGF-A121, VEGF-A165, PlGF-1, PlGF-2, PDGF-BB or FGF-2) or 10 μg/mL of biotinylated heparin (Sigma-Aldrich) were added. Bound GF was detected with biotinylated antibodies for human VEGF, PlGF, PDGF-BB, or FGF-2 (R&D Systems). The antibodies were detected by streptavidin-HRP (R&D Systems).
For orientation: In an ELISA, binding on a coated surface is turned into a signal by an enzyme label.

Assay [2] has as its target T2, human plasma-derived vWF (human, UniProt P04275 764-2813).
T2 construct: mature; also called plasma-derived purified vWF; von Willebrand factor
Kind of assay: ELISA, GF coated 50 nM, vWF 1 µg/mL.

The target in assay [3] is T3, laminin-521 (human, UniProt O15230 36-3695; P55268 33-1798; P11047 34-1609).
T3 construct: Full-length recombinant human laminin isoform (BioLamina); chains read from the isoform name
The assay can be described thus: SPR; laminin-521 immobilised on the chip (~2000 RU), PlGF-2 flowed at 20-75 nM; Langmuir fit. The protocol:
(§2) A450 nm represents absorbance at 450 nm. BSA-coated wells served as negative controls (n=4, mean±SEM). Signals greater than 0.1 (grey box) are considered to be significant. […] Experimental curves were fitted with Langmuir binding kinetics.
(§3) The obtained binding curves were fitted with Langmuir binding kinetics to calculate specific dissociation constants (KD) (FIG. 1B).
(§4) SPR analysis was performed as described previously². In brief, measurements were made with a Biacore 3000 SPR system (GE Healthcare). […] VEGF-A165, PDGF-BB, or PlGF-2 was flowed at increasing concentrations in the running buffer at 20 μL/min. The sensor chip was regenerated with 50 mM NaOH for every cycle. Specific bindings of GFs to laminin were calculated by comparison to a non-functionalized channel used as a reference. Experimental results were fitted with Langmuir binding kinetics using BIAevaluation software (GE Healthcare).

The target in assay [4] is T4, laminin-411 (human, UniProt Q16363 25-1823; P07942 22-1786; P11047 34-1609).
T4 construct: Full-length recombinant human laminin isoform (BioLamina); chains read from the isoform name
Kind of assay: ELISA; plate coated with 10 µg/mL laminin, 1 µg/mL PlGF-2 in solution without or with 10 µM heparin, bound GF detected with antibody [panel B]. The protocol: (§5) FIGS. 2A-C. […] ELISA plates were coated with 10 μg/mL laminin and further incubated with a 1 μg/mL (A) VEGF-A165, (B) PlGF-2, or (C) FGF-2 solution in the absence or presence of excess (10 μM) heparin. Bound GFs were detected using a specific antibody for each GF (n=4, mean±SEM). Statistical analyses were done using the Mann-Whitney U test by comparing the signals with and without heparin. *p<0.05, **p<0.01.
(§6) Because the GFs that bound to laminins have also been previously reported to bind to other ECM glycoproteins through HBDs, it was hypothesized that HBDs of laminins might be responsible for the interactions between GFs and laminin. To address this hypothesis, ELISA assays were repeated for VEGF-A165, PlGF-2 or FGF-2 in the presence of heparin added in excess (10 μM). […] To further confirm this, the inventors tested direct GF binding to the LG domains from human laminin α3, α4 and α5, within which HBDs of laminin were localized.

Assay [5] concerns the target T5, laminin-421 (human, UniProt Q16363 25-1823; P55268 33-1798; P11047 34-1609).
T5 construct: Full-length recombinant human laminin isoform (BioLamina); chains read from the isoform name
The description is as above. As to the method:
as §5, §6

The target in assay [6] is T6, laminin-111 (human, UniProt P25391 18-3075; P07942 22-1786; P11047 34-1609).
T6 construct: Full-length recombinant human laminin isoform (BioLamina); Chain composition is read from the isoform name
The assay is described as above. The protocol:
as §5, §6

Assay [7] has as its target T7, laminin-211 (human, UniProt P24043 23-3122; P07942 22-1786; P11047 34-1609).
T7 construct: Full-length recombinant human laminin isoform (BioLamina); chains read from the isoform name
Described as above. As to the method:
as §5, §6

For assay [8], the target named is T3, laminin-521. Kind of assay: SPR, laminin-521 immobilised, GF flowed, Langmuir fit. As to the method: as §2, §3, §4
Background: SPR reads the build-up and loss of mass on a sensor chip optically.

Assay [9] has as its target T8, recombinant human vWF A1 domain (human, UniProt P04275 1261-1468, limits assumed).
T8 construct: domain: A1; also called vWF A1 recombinant protein; recombinant A1 domain
The assay can be described thus: ELISA, A1 domain coated, GF 1 µg/mL. As to the method:
ELISA tests were performed as described above. […] After blocking with 2% BSA solution containing PBS-T, 1 μg/mL of the recombinant human proteins VEGF-A121, VEGF-A165, PlGF-1, PlGF-2, PDGF-BB, FGF-2, CXCL-12α and CXCL-12γ were added. 1 μg/mL of BSA served as non-binding protein control. Bound GF or chemokine was detected with biotinylated antibodies for human VEGF-A, PlGF, PDGF-BB, FGF-2, or CXCL-12 (R & D Systems). The antibodies were detected by streptavidin-HRP (R & D Systems). Color development and the absorbance measurement were done as described above.

The target in assay [10] is T2, human plasma-derived vWF. Kind of assay: SPR; plasma-derived vWF immobilised (~2000 RU), PDGF-BB flowed at 25-200 nM; heterogeneous ligand-parallel reactions fit, site 1 [panel D]. The protocol: (§7) A450 nm represents absorbance at 450 nm. Signals from VEGF-A121 served as a baseline, and bovine serum albumin (BSA) served as a negative control (n=4, mean±SD). […] Experimental curves were fitted with (C) 1:1 Langmuir fit model and (D) heterogeneous ligand-parallel reactions binding.
(§8) SPR assays were performed as described previously2. In brief, measurements were made with a Biacore X100 SPR system or Biacore 3000 SPR system (GE Healthcare). […] Recombinant human VEGF-A165, VEGF-A121, or PDGF-BB was flowed at increasing concentrations in the running buffer at 30 μL/min. The sensor chip was regenerated with glycine at pH 2 for every cycle.

In assay [11] the target is T1, recombinant laminin α3 2928-3150 …. The assay can be described thus: SPR; α3 2928-3150 recombinant protein immobilised (~1000 RU), PDGF-BB flowed at 0.325-41.6 nM; Langmuir fit [panel D].
Text: Statistical analyses were done using the Mann-Whitney U test by comparing the signals obtained from the laminin domain- and the BSA-coated wells. *p<0.05, **p<0.01. […] A SPR chip was functionalized with the laminin α3₂₉₂₈₋₃₁₅₀ recombinant protein (˜1000 RU), and each GF was flowed over the chip at indicated concentrations. Curves represent the specific responses (in RU) to laminin. Experimental curves were fitted with Langmuir binding kinetics.
as §6
SPR analysis was performed as described previously². In brief, measurements were made with a Biacore 3000 SPR system (GE Healthcare). […] VEGF-A165, PDGF-BB, or PlGF-2 was flowed at increasing concentrations in the running buffer at 20 μL/min. The sensor chip was regenerated with 50 mM NaOH for every cycle.

Assay [12] shares this target. Kind of assay: SPR, α3 2928-3150 immobilised, GF flowed, Langmuir fit. As to the method: as §1, §6
SPR analysis was performed as described previously². […]

For assay [13], the target named is T4, laminin-411. Kind of assay: ELISA, GF coated, laminin 10 nM.
Assay [14] deals with T5, laminin-421. Kind of assay: ELISA, GF coated, laminin 10 nM.
Assay [15] deals with T6, laminin-111. Kind of assay: ELISA, GF coated, laminin 10 nM.
Assay [16] deals with T7, laminin-211. The assay can be described thus: ELISA, GF coated, laminin 10 nM.
Assay [17] concerns the target T2, human plasma-derived vWF. The assay can be described thus: SPR, vWF immobilised, GF flowed, heterogeneous ligand-parallel reactions fit. As to the method: as §7, §8
Assay [18] addresses T2, human plasma-derived vWF. The assay can be described thus: SPR; plasma-derived vWF immobilised (~2000 RU), PDGF-BB flowed at 25-200 nM; heterogeneous ligand-parallel reactions fit, site 2 [panel D]. As to the method: as §7, §8
Assay [19] has as its target T3, laminin-521. The assay can be described thus: SPR; laminin-521 immobilised on the chip (~2000 RU), PDGF-BB flowed at 25-200 nM; Langmuir fit. The protocol: as §2, §3, §4

T5 sequence (Q16363 25-1823 limits assumed, chain 1 of 3): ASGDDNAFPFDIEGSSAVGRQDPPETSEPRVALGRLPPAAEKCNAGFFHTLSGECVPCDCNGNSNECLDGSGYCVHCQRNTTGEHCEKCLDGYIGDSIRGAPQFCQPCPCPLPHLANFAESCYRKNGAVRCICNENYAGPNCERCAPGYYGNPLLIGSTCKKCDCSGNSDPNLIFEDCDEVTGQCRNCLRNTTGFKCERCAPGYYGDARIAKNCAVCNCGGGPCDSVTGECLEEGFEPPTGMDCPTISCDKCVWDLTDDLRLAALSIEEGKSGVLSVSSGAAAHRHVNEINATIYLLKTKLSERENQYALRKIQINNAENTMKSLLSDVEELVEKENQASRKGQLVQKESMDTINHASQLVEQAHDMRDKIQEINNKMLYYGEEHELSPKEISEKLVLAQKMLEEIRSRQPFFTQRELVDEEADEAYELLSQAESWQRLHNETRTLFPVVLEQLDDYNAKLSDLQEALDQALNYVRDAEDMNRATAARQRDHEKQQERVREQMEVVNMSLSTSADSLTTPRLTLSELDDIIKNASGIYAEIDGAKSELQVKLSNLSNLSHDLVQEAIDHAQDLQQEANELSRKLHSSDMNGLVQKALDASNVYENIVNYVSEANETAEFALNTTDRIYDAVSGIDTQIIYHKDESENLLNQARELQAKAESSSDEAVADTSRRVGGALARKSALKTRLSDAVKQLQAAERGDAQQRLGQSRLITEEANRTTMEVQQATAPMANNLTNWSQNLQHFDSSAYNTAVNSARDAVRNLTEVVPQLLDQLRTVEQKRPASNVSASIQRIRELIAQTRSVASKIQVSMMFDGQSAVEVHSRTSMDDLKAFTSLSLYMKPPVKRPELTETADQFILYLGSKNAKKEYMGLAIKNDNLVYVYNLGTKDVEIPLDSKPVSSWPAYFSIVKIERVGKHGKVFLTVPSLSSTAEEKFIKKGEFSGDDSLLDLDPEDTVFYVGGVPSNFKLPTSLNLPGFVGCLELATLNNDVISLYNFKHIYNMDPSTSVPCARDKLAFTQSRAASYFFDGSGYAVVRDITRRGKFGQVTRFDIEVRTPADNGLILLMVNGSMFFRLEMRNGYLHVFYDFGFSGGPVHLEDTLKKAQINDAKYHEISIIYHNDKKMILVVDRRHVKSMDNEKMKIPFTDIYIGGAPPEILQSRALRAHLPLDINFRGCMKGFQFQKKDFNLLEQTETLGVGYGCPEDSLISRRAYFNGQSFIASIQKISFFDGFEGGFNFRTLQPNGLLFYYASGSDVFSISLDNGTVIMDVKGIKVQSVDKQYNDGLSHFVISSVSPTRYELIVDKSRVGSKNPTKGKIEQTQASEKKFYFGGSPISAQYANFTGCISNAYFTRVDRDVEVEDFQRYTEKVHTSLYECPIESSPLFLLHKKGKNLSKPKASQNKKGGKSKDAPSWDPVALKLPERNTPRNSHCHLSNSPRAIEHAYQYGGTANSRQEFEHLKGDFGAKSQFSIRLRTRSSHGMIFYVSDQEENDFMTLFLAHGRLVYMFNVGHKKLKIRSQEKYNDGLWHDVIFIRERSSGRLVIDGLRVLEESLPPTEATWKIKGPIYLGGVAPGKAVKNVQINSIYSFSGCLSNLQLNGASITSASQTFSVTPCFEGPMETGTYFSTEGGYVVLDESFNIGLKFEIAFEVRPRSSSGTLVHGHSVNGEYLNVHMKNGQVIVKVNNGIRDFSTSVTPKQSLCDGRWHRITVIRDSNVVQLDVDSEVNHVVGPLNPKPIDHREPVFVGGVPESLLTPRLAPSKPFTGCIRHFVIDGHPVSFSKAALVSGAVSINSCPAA
T5 sequence (P55268 33-1798 limits assumed, chain 2 of 3): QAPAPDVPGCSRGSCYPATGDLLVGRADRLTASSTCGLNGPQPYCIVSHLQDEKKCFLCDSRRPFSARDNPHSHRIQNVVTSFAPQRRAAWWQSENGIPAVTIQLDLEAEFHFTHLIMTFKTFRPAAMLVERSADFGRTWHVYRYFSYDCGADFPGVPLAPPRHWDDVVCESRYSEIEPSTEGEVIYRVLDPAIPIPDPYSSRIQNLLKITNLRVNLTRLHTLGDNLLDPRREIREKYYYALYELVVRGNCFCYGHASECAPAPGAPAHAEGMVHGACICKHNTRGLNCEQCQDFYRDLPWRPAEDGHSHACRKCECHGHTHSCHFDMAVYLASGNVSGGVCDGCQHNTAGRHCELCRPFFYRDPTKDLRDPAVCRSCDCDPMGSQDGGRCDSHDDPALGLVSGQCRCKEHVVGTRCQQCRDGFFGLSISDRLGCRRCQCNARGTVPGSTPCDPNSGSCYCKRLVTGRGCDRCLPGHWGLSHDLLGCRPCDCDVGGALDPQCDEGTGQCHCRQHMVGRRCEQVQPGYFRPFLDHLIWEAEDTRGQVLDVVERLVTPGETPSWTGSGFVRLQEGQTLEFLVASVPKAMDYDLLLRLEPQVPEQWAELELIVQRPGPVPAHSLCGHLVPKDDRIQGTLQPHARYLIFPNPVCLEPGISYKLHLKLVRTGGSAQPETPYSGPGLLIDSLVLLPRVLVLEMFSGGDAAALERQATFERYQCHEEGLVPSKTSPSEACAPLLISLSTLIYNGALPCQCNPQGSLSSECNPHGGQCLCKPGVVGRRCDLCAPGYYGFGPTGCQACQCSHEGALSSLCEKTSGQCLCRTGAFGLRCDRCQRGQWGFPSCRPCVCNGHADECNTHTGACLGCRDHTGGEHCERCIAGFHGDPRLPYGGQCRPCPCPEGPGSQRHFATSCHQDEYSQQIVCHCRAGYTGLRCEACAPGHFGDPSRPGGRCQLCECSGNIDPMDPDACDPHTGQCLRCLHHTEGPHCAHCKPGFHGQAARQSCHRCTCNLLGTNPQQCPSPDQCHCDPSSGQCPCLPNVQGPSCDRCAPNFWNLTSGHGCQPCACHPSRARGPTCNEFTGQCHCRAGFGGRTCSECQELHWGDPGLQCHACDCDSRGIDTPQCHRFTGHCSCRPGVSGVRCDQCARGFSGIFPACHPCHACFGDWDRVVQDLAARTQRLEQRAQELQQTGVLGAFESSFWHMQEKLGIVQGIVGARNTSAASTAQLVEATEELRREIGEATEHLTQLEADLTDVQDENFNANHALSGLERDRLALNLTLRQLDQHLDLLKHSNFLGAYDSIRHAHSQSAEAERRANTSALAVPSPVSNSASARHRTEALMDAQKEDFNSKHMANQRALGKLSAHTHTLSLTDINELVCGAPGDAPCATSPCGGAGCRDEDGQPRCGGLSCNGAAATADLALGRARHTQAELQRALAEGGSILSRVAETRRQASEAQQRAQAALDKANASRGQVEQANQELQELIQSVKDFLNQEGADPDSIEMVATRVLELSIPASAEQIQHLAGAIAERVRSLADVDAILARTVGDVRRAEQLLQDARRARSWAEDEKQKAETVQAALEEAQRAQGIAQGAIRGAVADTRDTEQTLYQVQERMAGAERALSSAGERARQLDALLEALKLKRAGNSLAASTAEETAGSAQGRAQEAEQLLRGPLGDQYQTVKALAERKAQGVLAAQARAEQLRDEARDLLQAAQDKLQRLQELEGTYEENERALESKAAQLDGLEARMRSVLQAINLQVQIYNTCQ
T5 sequence (P11047 34-1609 limits assumed, chain 3 of 3): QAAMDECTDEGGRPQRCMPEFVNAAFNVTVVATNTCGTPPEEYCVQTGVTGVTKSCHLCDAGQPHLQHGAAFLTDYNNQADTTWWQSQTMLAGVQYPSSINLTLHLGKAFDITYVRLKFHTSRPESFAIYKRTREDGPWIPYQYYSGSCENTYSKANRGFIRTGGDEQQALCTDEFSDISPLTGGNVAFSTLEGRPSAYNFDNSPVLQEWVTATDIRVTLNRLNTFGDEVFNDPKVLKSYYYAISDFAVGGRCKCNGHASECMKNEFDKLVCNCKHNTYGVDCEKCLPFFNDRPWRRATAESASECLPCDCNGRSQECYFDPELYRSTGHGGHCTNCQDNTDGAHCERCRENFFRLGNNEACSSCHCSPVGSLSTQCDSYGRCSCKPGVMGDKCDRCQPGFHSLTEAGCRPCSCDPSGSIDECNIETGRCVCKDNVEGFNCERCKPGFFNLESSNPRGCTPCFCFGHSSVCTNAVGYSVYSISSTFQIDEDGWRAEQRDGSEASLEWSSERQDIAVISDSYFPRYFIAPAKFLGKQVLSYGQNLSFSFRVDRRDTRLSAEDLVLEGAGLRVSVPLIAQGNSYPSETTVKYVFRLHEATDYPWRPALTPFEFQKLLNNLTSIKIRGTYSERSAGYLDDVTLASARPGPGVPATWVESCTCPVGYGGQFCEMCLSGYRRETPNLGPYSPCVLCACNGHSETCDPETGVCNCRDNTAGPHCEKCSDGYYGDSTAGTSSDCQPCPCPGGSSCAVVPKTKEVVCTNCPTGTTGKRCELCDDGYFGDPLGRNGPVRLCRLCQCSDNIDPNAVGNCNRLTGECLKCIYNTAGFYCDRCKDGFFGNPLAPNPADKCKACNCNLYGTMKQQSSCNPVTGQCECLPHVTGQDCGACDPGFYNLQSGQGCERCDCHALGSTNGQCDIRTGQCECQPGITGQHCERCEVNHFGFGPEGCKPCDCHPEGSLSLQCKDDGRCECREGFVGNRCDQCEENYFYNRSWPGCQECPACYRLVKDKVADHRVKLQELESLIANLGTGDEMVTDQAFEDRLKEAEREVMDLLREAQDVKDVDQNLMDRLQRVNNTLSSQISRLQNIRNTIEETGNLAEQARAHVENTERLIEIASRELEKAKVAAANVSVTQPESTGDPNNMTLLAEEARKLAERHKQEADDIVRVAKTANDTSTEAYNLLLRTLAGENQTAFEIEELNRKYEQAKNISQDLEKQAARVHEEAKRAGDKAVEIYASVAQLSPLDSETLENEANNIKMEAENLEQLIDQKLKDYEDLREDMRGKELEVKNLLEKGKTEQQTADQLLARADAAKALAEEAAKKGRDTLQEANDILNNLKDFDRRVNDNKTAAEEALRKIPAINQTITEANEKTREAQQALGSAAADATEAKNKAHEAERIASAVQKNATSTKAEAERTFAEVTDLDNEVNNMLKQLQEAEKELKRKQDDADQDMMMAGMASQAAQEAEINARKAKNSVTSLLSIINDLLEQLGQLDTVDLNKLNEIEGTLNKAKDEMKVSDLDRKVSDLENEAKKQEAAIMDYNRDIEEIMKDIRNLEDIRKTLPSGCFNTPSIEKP

B1: placental growth factor (PlGF)-2 (ligand, human, UniProt P49763-3 19-170, looked up)
chain: LPAVPPQQWALSAGNGSSEVEVVPFQEVWGRSYCRALERLVDVVSEYPSEVEHMFSPSCVSLLRCTGCCGDENLHCVPVETANVTMQLLKIRSGDRPSYVELTFSQHVRCECRPLREKMKPERRRPKGRGKRRREKQRPTDCHLCGDAVPRR
notes: mature; Purchased in mature form
In the case of B1, the binding result (in assay [1]; with human plasma-derived vWF [2]; with laminin-411 [4]; with laminin-421 [5]; with laminin-111 [6]; with laminin-211 [7]) was “binds” in each case. In addition, in assay [9], the binding result is listed as “binds”. Besides, the koff in the assay with laminin-521 [3] was found to be 0.0246 s⁻¹. Also, the kon with laminin-521 [3] turned out to be 1.91e+06 M⁻¹ s⁻¹. The Kd in the assay with laminin-521 [8] came out at 12.9 nM.

B2: platelet-derived growth factor (PDGF)-BB (ligand, human, UniProt P01127 82-190, looked up)
chain: SLGSLTIAEPAMIAECKTRTEVFEISRRLIDRTNANFLVWPPCVEVQRCSGCCNNRNVQCRPTQVQLRPVQVRKIEIVRKKPIFKKATVTLEDHLACKCETVAAARPVT
notes: as for B1
As for B2, the Kd with human plasma-derived vWF [10] worked out at 154 nM; in [11] it was 12.1 nM; in assay [12] it was 10.2 nM; in the assay with human plasma-derived vWF [17], 24 nM; with laminin-521 [8], 24.2 nM; with human plasma-derived vWF [18], 23.8 nM. Also, the koff was determined as 0.0664 s⁻¹ with human plasma-derived vWF [10], 0.0136 s⁻¹ in [11], 0.00508 s⁻¹ with human plasma-derived vWF [18] and 0.00497 s⁻¹ in the assay with laminin-521 [19]. Moreover, the kon with human plasma-derived vWF [10] is 430000 M⁻¹ s⁻¹; in assay [11], 1.12e+06 M⁻¹ s⁻¹; with human plasma-derived vWF [18], 213000 M⁻¹ s⁻¹; with laminin-521 [19] it was 206000 M⁻¹ s⁻¹. Further, the binding result in the assay with laminin-411 [13], with laminin-421 [14], with laminin-111 [15] and with laminin-211 [16] was “binds” throughout.
